From article PMC6035275, “Structures of DNA-bound human ligase IV catalytic core reveal insights into substrate binding and catalysis”

T1: DNA ligase IV catalytic domain (lysyl-AMP at K273 in open complex) (human, UniProt P49917 1-620)
T1 sequence: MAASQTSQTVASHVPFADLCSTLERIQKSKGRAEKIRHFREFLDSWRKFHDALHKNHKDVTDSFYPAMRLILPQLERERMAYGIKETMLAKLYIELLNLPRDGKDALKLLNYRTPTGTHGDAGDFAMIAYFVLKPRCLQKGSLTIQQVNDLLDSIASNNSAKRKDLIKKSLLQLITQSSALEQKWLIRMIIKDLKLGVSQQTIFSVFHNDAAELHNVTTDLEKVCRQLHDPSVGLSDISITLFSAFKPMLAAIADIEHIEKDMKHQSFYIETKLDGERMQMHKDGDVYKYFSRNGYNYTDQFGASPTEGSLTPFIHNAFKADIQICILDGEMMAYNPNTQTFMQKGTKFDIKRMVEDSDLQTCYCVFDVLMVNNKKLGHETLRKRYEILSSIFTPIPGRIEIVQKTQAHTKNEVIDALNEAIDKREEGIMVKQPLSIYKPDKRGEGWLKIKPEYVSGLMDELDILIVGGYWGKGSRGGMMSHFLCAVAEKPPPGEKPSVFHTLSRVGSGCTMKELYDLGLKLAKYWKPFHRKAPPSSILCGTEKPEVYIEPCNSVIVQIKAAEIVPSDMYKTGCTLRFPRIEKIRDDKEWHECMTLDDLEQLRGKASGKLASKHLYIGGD

B1: nicked DNA duplex (crystal), 5'-phosphate downstream primer (dsDNA)
DNA 1: GTCCGACGACGCATCAGC
DNA 2: GCTGATGCGTC
DNA 3: GTCGGAC
modifications: upstream primer 3'-dideoxycytidine; downstream primer 5'-phosphate
B2: nicked DNA-adenylate duplex (crystal), 5'-AMP downstream primer (dsDNA)
DNA 1: GTCCGACGACGCATCAGC
DNA 2: GCTGATGCGTC
DNA 3: GTCGGAC
modifications: upstream primer 3'-dideoxycytidine; downstream primer 5'-adenylated (AMP-p, transferred from K273 in the complex)

Key:
[1] = biological target: T1, DNA ligase IV catalytic domain …; assay: X-ray crystallography; lysyl-AMP (K273), open conformation, 10 mM MgCl2; 3.25 A; Crystals: protein pre-incubated with 4 mM MgCl2, 1 mM ATP, 1 h on ice, DNA added at 2:1 molar ratio, 1 h on ice; HEPES pH 7.5 (77-79 mM), ~7.8% isopropanol, ~15.5% PEG4000, ~13.6% glycerol, +/- 10 mM MgCl2, room temperature. Mutants only tested by ligation turnover (no binding read-out).; conditions: protein: recombinant; tags: 6xHis-SUMO, removed with Ulp1; nicked duplex, 18 bp, blunt ends; nick between strand 2 (11 nt) and strand 3 (7 nt)
[2] = biological target: T1, DNA ligase IV catalytic domain …; assay: X-ray crystallography; DNA-adenylate, closed conformation, no metal bound; Crystals: protein pre-incubated with 4 mM MgCl2, 1 mM ATP, 1 h on ice, DNA added at 2:1 molar ratio, 1 h on ice; HEPES pH 7.5 (77-79 mM), ~7.8% isopropanol, ~15.5% PEG4000, ~13.6% glycerol, +/- 10 mM MgCl2, room temperature. Mutants only tested by ligation turnover (no binding read-out).; conditions: protein: recombinant; tags: 6xHis-SUMO, removed with Ulp1; nicked duplex, 18 bp, blunt ends; nick between strand 2 (11 nt) and strand 3 (7 nt)

Binder | binding result [1] | binding result [2]
B1 | binds | 
B2 |  | binds
